Data taken from publication PMC3776929 (Cell, 2013).

B1: Rvb1 (natural protein, S. cerevisiae, UniProt Q03940 1-463, looked up)
chain: MVAISEVKENPGVNSSNSGAVTRTAAHTHIKGLGLDESGVAKRVEGGFVGQIEAREACGVIVDLIKAKKMSGRAILLAGGPSTGKTALALAISQELGPKVPFCPLVGSELYSVEVKKTETLMENFRRAIGLRIKETKEVYEGEVTELTPEDAENPLGGYGKTISHVIVGLKSAKGTKTLRLDPTIYESIQREKVSIGDVIYIEANTGAVKRVGRSDAYATEFDLETEEYVPLPKGEVHKKKEIVQDVTLHDLDVANARPQGGQDVISMMGQLLKPKKTEITEKLRQEVNKVVAKYIDQGVAELIPGVLFIDEVNMLDIEIFTYLNKALESNIAPVVVLASNRGMTTVRGTEDVISPHGVPPDLIDRLLIVRTLPYDKDEIRTIIERRATVERLQVESSALDLLATMGTETSLRYALQLLAPCGILAQTSNRKEIVVNDVNEAKLLFLDAKRSTKILETSANYL
notes: Rvb1, AAA+ ATPase, S. cerevisiae (YDR190C); also called AAA+ ATPase Rvb1; source: endogenous, S. cerevisiae; co-purified in the SWR1 and INO80 complexes
B2: Rvb2 (natural protein, S. cerevisiae, UniProt Q12464 1-471, looked up)
chain: MSIQTSDPNETSDLKSLSLIAAHSHITGLGLDENLQPRPTSEGMVGQLQARRAAGVILKMVQNGTIAGRAVLVAGPPSTGKTALAMGVSQSLGKDVPFTAIAGSEIFSLELSKTEALTQAFRKSIGIKIKEETELIEGEVVEIQIDRSITGGHKQGKLTIKTTDMETIYELGNKMIDGLTKEKVLAGDVISIDKASGKITKLGRSFARSRDYDAMGADTRFVQCPEGELQKRKTVVHTVSLHEIDVINSRTQGFLALFTGDTGEIRSEVRDQINTKVAEWKEEGKAEIVPGVLFIDEVHMLDIECFSFINRALEDEFAPIVMMATNRGVSKTRGTNYKSPHGLPLDLLDRSIIITTKSYNEQEIKTILSIRAQEEEVELSSDALDLLTKTGVETSLRYSSNLISVAQQIAMKRKNNTVEVEDVKRAYLLFLDSARSVKYVQENESQYIDDQGNVQISIAKSADPDAMDTTE
notes: Rvb2, AAA+ ATPase, S. cerevisiae (YPL235W); also called AAA+ ATPase Rvb2; source: endogenous, S. cerevisiae; co-purified in the SWR1 and INO80 complexes
B3: Swc4 (natural protein, S. cerevisiae, UniProt P53201 1-476, looked up)
chain: MSSSDIFDVLNIKQKSRSPTNGQVSVPSSSAANRPKPQVTGMQRELFNLLGENQPPVVIKSGNNFKEKMLSTSKPSPWSFVEFKANNSVTLRHWVKGSKELIGDTPKESPYSKFNQHLSIPSFTKEEYEAFMNENEGTQKSVESEKNHNENFTNEKKDESKNSWSFEEIEYLFNLCKKYDLRWFLIFDRYSYNNSRTLEDLKEKFYYTCRNYFKASDPSNPLLSSLNFSAEKEIERKKYLQRLLSRSAAEIAEEEALVVESKKFEMAAKRTLAERESLLRLLDSPHSDQTITQYLTSQGMSQLYNALLADKTRKRKHDLNIPENPWMKQQQQFAQHRQLQQLNVKKSEVKENLSPKKTKRQRQEMQTALKRKSESAYAEQLLKDFNSDERKALGVITHGEKLSPGVYLRSTKLSTFKPALQNKILAILQELSLPSRPVMPSFDVMERQEELLKKINTLIDLKKHVDKYEAGMSITK
notes: Swc4, N-Module subunit of SWR1, S. cerevisiae; source: endogenous, S. cerevisiae; co-purified in the SWR1 complex
B4: Swc3 (natural protein, S. cerevisiae, UniProt P31376 1-625, looked up)
chain: MPAVLRTRSKESSIEQKPASRTRTRSRRGKRGRDDDDDDDDEESDDAYDEVGNDYDEYASRAKLATNRPFEIVAGLPASVELPNYNSSLTHPQSIKNSGVLYDSLVSSRRTWVQGEMFELYWRRPKKIVSESTPAATESPTSGTIPLIRDKMQKMCDCVMSGGPHTFKVRLFILKNDKIEQKWQDEQELKKKEKELKRKNDAEAKRLRMEERKRQQMQKKIAKEQKLQLQKENKAKQKLEQEALKLKRKEEMKKLKEQNKNKQGSPSSSMHDPRMIMNLNLMAQEDPKLNTLMETVAKGLANNSQLEEFKKFIEIAKKRSLEENPVNKRPSVTTTRPAPPSKAKDVAEDHRLNSITLVKSSKTAATEPEPKKADDENAEKQQSKEAKTTAESTQVDVKKEEEDVKEKGVKSEDTQKKEDNQVVPKRKRRKNAIKEDKDMQLTAFQQKYVQGAEIILEYLEFTHSRYYLPKKSVVEFLEDTDEIIISWIVIHNSKEIEKFKTKKIKAKLKADQKLNKEDAKPGSDVEKEVSFNPLFEADCPTPLYTPMTMKLSGIHKRFNQIIRNSVSPMEEVVKEMEKILQIGTRLSGYNLWYQLDGYDDEALSESLRFELNEWEHAMRSRRHKR
notes: Swc3, C-Module subunit of SWR1, S. cerevisiae; source: endogenous, S. cerevisiae; co-purified in the SWR1 complex
B5: Bdf1 (natural protein, S. cerevisiae, UniProt P35817 1-686, looked up)
chain: MTDITPVQNDVDVNGNNVNDDVSSNLKRPIDQGDPSNGLAEEENPANNQLHLKKARLDGDALTSSPAGLAENGIEGATLAANGENGYNATGSGAEDEQQGLKKEEGGQGTKQEDLDENSKQELPMEVPKEPAPAPPPEPDMNNLPQNPIPKHQQKHALLAIKAVKRLKDARPFLQPVDPVKLDIPFYFNYIKRPMDLSTIERKLNVGAYEVPEQITEDFNLMVNNSIKFNGPNAGISQMARNIQASFEKHMLNMPAKDAPPVIAKGRRSSAQEDAPIVIRRAQTHNGRPKRTIHPPKSKDIYPYESKKPKSKRLQQAMKFCQSVLKELMAKKHASYNYPFLEPVDPVSMNLPTYFDYVKEPMDLGTIAKKLNDWQYQTMEDFERDVRLVFKNCYTFNPDGTIVNMMGHRLEEVFNSKWADRPNLDDYDSDEDSRTQGDYDDYESEYSESDIDETIITNPAIQYLEEQLARMKVELQQLKKQELEKIRKERRLARGSKKRGKRSKGRSGSKNASSKGRRDKKNKLKTVVTYDMKRIITERINDLPTSKLERAIDIIKKSMPNISEDDEVELDLDTLDNHTILTLYNTFFRQYESSSGASNGLDGTSGVTRDASSLSPTSAGSRKRRSKALSQEEQSRQIEKIKNKLAILDSASPLSQNGSPGQIQSAAHNGFSSSSDDDVSSESEEE
notes: Bdf1, N-Module subunit of SWR1, S. cerevisiae; source: endogenous, S. cerevisiae; co-purified in the SWR1 complex
B6: Arp4 (natural protein, S. cerevisiae, UniProt P80428 1-489, looked up)
chain: MSNAALQVYGGDEVSAVVIDPGSYTTNIGYSGSDFPQSILPSVYGKYTADEGNKKIFSEQSIGIPRKDYELKPIIENGLVIDWDTAQEQWQWALQNELYLNSNSGIPALLTEPVWNSTENRKKSLEVLLEGMQFEACYLAPTSTCVSFAAGRPNCLVVDIGHDTCSVSPIVDGMTLSKSTRRNFIAGKFINHLIKKALEPKEIIPLFAIKQRKPEFIKKTFDYEVDKSLYDYANNRGFFQECKETLCHICPTKTLEETKTELSSTAKRSIESPWNEEIVFDNETRYGFAEELFLPKEDDIPANWPRSNSGVVKTWRNDYVPLKRTKPSGVNKSDKKVTPTEEKEQEAVSKSTSPAANSADTPNETGKRPLEEEKPPKENNELIGLADLVYSSIMSSDVDLRATLAHNVVLTGGTSSIPGLSDRLMTELNKILPSLKFRILTTGHTIERQYQSWLGGSILTSLGTFHQLWVGKKEYEEVGVERLLNDRFR
notes: Arp4, actin-related protein, N-Module subunit of SWR1, S. cerevisiae; source: endogenous, S. cerevisiae; co-purified in the SWR1 complex

Legend:
Ino80 = biological target: T1, Ino80 (UniProt P53115 1-1489); test: co-IP; INO80 complex purified by affinity and glycerol gradient, resolved on 4%-12% Bis-Tris gels in MOPS buffer; band intensities normalised for protein size; settings: partners not purified
T1 construct: Ino80, catalytic subunit of the INO80 complex
T1 sequence (P53115 whole entry): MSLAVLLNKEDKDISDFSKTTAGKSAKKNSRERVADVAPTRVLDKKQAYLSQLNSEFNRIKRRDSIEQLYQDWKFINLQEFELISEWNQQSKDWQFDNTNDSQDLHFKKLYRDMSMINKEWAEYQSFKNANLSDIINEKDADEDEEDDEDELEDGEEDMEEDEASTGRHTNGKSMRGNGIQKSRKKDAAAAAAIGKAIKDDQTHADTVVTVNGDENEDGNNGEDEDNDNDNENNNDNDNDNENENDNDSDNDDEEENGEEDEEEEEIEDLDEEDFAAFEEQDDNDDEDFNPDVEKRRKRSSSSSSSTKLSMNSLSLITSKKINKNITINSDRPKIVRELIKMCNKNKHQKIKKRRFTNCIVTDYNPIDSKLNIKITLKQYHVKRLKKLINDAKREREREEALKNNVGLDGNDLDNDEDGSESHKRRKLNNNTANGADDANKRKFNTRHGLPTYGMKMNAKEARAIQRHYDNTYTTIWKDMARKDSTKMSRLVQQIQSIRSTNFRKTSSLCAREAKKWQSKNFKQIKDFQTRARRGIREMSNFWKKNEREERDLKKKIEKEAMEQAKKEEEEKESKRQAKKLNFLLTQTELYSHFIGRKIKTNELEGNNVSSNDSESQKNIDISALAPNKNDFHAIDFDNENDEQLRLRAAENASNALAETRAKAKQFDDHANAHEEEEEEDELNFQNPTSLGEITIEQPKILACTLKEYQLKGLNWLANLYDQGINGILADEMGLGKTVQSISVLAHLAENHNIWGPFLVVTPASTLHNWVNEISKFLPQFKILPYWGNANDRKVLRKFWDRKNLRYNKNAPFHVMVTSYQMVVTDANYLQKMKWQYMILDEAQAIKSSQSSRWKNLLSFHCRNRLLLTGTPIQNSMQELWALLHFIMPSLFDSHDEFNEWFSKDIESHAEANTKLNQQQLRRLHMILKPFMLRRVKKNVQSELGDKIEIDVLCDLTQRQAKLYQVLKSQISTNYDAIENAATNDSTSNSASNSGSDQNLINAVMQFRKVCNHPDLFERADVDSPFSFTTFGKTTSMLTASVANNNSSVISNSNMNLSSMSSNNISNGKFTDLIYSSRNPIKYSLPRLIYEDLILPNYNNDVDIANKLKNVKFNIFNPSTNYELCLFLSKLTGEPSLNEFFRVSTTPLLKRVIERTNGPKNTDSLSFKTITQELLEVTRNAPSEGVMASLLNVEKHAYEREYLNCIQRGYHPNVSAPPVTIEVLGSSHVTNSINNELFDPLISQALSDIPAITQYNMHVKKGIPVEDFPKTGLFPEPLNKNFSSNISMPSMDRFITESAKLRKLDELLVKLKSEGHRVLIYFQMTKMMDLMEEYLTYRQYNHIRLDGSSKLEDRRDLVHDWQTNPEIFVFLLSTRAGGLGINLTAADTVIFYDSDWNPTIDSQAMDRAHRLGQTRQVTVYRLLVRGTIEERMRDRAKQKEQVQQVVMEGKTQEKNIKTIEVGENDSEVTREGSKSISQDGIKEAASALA

Arp4 = biological target: B6; test: cross-linking; ∼45 μg affinity-purified SWR1 cross-linked with 1 mM DSS d0/d12 in SWR1 buffer, 37°C, 30 min; trypsin, SEC enrichment, LC-MS/MS, xQuest (CX-MS); settings: both partners purified
[1] = biological target: T2, Swr1, FLAG-tagged catalytic subunit of the SWR1 complex (S. cerevisiae, UniProt Q05471 1-1514); test: co-IP; FLAG affinity purification of SWR1 (or a subcomplex) from S. cerevisiae, eluted with 3× FLAG peptide; SDS-PAGE (4%-12% Bis-Tris), Coomassie or SYPRO Orange stain; band intensities normalised for protein size for the stoichiometry; settings: partners not purified
T2 construct: Swr1, catalytic ATPase subunit of the SWR1 complex, S. cerevisiae; HSA domain in the N-terminal half, split ATPase domain with long insert in the C-terminal half; also called Swr1-3xFLAG; Swr1 ATPase
T2 sequence (Q05471 whole entry, the tested form may be a part, one chain of several): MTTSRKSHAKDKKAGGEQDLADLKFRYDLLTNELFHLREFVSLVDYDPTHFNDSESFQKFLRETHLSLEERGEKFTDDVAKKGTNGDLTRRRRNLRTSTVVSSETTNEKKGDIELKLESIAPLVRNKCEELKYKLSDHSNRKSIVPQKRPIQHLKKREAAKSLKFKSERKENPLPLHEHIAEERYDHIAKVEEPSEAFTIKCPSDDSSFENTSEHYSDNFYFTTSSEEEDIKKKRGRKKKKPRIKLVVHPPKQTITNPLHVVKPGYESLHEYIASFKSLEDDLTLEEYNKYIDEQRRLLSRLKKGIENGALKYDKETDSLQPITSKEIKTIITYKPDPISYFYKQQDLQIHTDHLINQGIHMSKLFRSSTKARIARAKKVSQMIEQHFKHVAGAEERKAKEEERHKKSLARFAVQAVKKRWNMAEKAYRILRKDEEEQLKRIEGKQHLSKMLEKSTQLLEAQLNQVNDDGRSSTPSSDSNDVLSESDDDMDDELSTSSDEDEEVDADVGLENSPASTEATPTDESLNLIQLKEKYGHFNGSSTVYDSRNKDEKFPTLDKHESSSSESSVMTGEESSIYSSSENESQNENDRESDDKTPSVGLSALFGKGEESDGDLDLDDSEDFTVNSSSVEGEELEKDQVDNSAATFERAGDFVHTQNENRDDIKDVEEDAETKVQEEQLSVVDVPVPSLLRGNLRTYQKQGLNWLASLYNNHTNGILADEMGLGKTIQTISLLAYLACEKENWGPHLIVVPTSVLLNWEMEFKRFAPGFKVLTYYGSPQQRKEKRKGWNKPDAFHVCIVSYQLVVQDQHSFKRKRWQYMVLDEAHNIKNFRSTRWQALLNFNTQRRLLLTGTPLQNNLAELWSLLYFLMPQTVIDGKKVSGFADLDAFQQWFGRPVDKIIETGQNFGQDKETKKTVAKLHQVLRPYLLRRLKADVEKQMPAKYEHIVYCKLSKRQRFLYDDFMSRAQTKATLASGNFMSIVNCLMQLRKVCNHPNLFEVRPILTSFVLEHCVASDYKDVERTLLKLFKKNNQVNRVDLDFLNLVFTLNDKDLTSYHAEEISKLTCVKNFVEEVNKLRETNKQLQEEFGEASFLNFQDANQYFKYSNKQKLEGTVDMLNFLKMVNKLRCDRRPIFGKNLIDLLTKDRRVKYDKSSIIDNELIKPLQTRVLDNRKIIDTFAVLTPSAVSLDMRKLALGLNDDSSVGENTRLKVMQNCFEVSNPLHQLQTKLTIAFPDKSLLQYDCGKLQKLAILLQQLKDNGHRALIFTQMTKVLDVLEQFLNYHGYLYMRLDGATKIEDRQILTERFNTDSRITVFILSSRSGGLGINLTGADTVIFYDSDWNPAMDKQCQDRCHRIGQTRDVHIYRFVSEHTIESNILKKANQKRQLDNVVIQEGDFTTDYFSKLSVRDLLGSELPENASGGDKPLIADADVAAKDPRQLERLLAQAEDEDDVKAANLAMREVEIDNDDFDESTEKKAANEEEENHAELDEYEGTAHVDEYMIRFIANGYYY

[2] = biological target: T2, Swr1, FLAG-tagged catalytic subunit of …; test: cross-linking; ∼45 μg affinity-purified SWR1 cross-linked with 1 mM DSS d0/d12 in SWR1 buffer, 37°C, 30 min; trypsin, SEC enrichment, LC-MS/MS, xQuest (CX-MS); settings: both partners purified
Swc2 = biological target: T3, Swc2 (S. cerevisiae, UniProt Q03388 1-795); test: as above; settings: both partners purified
T3 construct: Swc2, C-Module subunit of SWR1, S. cerevisiae; source: endogenous, S. cerevisiae; co-purified in the SWR1 complex
T3 sequence (looked up): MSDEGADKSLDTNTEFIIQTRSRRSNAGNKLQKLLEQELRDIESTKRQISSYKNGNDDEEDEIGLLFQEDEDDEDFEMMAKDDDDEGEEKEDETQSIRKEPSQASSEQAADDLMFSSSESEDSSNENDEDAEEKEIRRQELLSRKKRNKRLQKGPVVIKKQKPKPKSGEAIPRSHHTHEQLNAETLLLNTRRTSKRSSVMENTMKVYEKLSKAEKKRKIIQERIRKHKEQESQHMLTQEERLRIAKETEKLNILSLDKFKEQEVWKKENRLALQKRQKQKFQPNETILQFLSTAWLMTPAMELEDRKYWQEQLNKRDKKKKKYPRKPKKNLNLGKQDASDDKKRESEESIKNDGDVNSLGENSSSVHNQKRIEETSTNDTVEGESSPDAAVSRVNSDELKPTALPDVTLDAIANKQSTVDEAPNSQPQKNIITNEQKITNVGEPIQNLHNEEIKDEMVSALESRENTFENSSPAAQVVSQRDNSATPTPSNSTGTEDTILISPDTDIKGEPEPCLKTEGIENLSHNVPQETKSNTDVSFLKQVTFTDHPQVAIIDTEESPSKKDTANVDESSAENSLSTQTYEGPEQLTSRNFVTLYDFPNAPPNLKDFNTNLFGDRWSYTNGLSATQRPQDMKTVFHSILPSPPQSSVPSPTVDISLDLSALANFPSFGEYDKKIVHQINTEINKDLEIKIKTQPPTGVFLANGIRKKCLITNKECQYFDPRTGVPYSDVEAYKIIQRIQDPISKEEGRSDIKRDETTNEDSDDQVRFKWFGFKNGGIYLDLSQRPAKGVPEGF

Swc3 = biological target: B4; test: as above; settings: both partners purified

Binder	stoichiometry N (Ino80)	binding result (Arp4)	stoichiometry N [1]	binding result [2]	also measured
B1	~3	binds	~3	–	–
B2	~3	–	~3	–	–
B3	–	binds	–	binds	–
B4	–	–	–	binds	–
B5	–	–	–	–	binding result (Swc2): binds
B6	–	–	–	–	binding result (Swc3): binds
